Data reported in patent US20120171723A1.

Biological target: human zFGF5 (FGF homolog polypeptide) (human) (UniProt O76093)
Assay: cell-based or functional assay

Sequence of human zFGF5 (FGF homolog polypeptide) (human) (O76093 28-207): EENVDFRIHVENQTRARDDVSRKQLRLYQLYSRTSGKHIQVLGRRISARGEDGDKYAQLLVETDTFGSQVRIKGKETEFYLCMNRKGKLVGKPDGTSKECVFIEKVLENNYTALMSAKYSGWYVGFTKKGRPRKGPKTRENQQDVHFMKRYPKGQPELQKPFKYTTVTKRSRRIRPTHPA

Row | Substance | Cell Proliferation (percent of control) at 0 fold-excess of soluble receptor (percent of control) | Cell Proliferation (percent of control) at 62.5 fold-excess of soluble receptor (percent of control) | Cell Proliferation (percent of control) at 125 fold-excess of soluble receptor (percent of control) | Cell Proliferation (percent of control) at 250 fold-excess of soluble receptor (percent of control) | Cell Proliferation (percent of control) at 500 fold-excess of soluble receptor (percent of control) | Cell Proliferation (percent of control) at 1000 fold-excess of soluble receptor (percent of control) | Cell Proliferation (percent of control) at 0.8 fold-excess of soluble receptor (percent of control) | Cell Proliferation (percent of control) at 1.6 fold-excess of soluble receptor (percent of control) | Cell Proliferation (percent of control) at 3.2 fold-excess of soluble receptor (percent of control) | Cell Proliferation (percent of control) at 6.3 fold-excess of soluble receptor (percent of control) | Cell Proliferation (percent of control) at 12.5 fold-excess of soluble receptor (percent of control) | Cell Proliferation (percent of control) at 25 fold-excess of soluble receptor (percent of control) | Cell Proliferation (percent of control) at 50 fold-excess of soluble receptor (percent of control) | Cell Proliferation (percent of control) at 100 fold-excess of soluble receptor (percent of control)
1 | FGFR2α-IIIb/Fc soluble receptor (from UniProt P21802 22-378) (Fc fusion) | 100 | 101 | 90 | 91 | 101 | 99 | – | – | – | – | – | – | – | –
2 | FGFR3α-IIIc/Fc soluble receptor (Fc fusion) | 100 | – | – | – | – | – | 85 | 66 | 37 | 5 | 1 | 0.2 | 0 | 0
